Earlier results on one substance are cited in patent US20180071407A9, “SYSTEMS AND METHODS FOR INTRA-TARGET MICRODOSING (ITM)” (priority 2013, published 2018).

The conditions of the data set: known value used to choose sampling time points; cited from earlier work.

As to insulin, the half-life of insulin is 4 to 6 min.
